Changes are numbered by the printed parent chain. Names and notes keep the numbering of the source.
B1: CE115HA000 E61D (antibody, name in Kabat numbering, V domains shown)
VH: QVQLVESGGGVVQPGRSLRLSCAASGFTFSNAWMHWVRQAPGKGLEWVAQIKAKSNNYATYYADSVKGRFTISRDDSKNSLYLQMNSLKTEDTAVYYCRYVHYGAYYGVDAWGQGTTVTVSS
VL: DIVMTQSPLSLPVTPGEPASISCRSSQSLVHSNRNTYLHWYQQKPGQAPRLLIYKVSNRFSGVPDRFSGSGSGTDFTLKISRVEAEDVGVYYCGQGTQVPYTFGQGTKLEIK
B2: CE115HA000 E61P (antibody, name in Kabat numbering, V domains shown)
VH: B1 VH with D64P
VL: B1 VL
B3: CE115HA000 E61Q (antibody, name in Kabat numbering, V domains shown)
VH: B1 VH with D64Q
VL: B1 VL
B4: CE115HA000 G65D (antibody, name in Kabat numbering, V domains shown)
VH: B1 VH with D64E, G68D
VL: B1 VL
B5: CE115HA000 G65E (antibody, name in Kabat numbering, V domains shown)
VH: B1 VH with D64E, G68E
VL: B1 VL
B6: CE115HA000 G98A (antibody, name in Kabat numbering, V domains shown)
VH: B1 VH with D64E, G104A
VL: B1 VL
B7: CE115HA000 G98D (antibody, name in Kabat numbering, V domains shown)
VH: B1 VH with D64E, G104D
VL: B1 VL
B8: CE115HA000 G98F (antibody, name in Kabat numbering, V domains shown)
VH: B1 VH with D64E, G104F
VL: B1 VL
B9: CE115HA000 G98H (antibody, name in Kabat numbering, V domains shown)
VH: B1 VH with D64E, G104H
VL: B1 VL
B10: CE115HA000 G98P (antibody, name in Kabat numbering, V domains shown)
VH: B1 VH with D64E, G104P
VL: B1 VL
B11: CE115HA000 G98Q (antibody, name in Kabat numbering, V domains shown)
VH: B1 VH with D64E, G104Q
VL: B1 VL
B12: CE115HA000 G98T (antibody, name in Kabat numbering, V domains shown)
VH: B1 VH with D64E, G104T
VL: B1 VL
B13: CE115HA000 G98Y (antibody, name in Kabat numbering, V domains shown)
VH: B1 VH with D64E, G104Y
VL: B1 VL
B14: CE115HA000 G100bE (antibody, name in Kabat numbering, V domains shown)
VH: B1 VH with D64E, G108E
VL: B1 VL
B15: CE115HA000 G100bF (antibody, name in Kabat numbering, V domains shown)
VH: B1 VH with D64E, G108F
VL: B1 VL
B16: CE115HA000 G100bI (antibody, name in Kabat numbering, V domains shown)
VH: B1 VH with D64E, G108I
VL: B1 VL
B17: CE115HA000 G100bS (antibody, name in Kabat numbering, V domains shown)
VH: B1 VH with D64E, G108S
VL: B1 VL
B18: CE115HA000 G100bY (antibody, name in Kabat numbering, V domains shown)
VH: B1 VH with D64E, G108Y
VL: B1 VL
B19: CE115HA000 H35D (antibody, name in Kabat numbering, V domains shown)
VH: B1 VH with H35D, D64E
VL: B1 VL
B20: CE115HA000 H35F (antibody, name in Kabat numbering, V domains shown)
VH: B1 VH with H35F, D64E
VL: B1 VL
B21: CE115HA000 H35G (antibody, name in Kabat numbering, V domains shown)
VH: B1 VH with H35G, D64E
VL: B1 VL
B22: CE115HA000 H35I (antibody, name in Kabat numbering, V domains shown)
VH: B1 VH with H35I, D64E
VL: B1 VL
B23: CE115HA000 H35K (antibody, name in Kabat numbering, V domains shown)
VH: B1 VH with H35K, D64E
VL: B1 VL
B24: CE115HA000 H35L (antibody, name in Kabat numbering, V domains shown)
VH: B1 VH with H35L, D64E
VL: B1 VL
B25: CE115HA000 H35M (antibody, name in Kabat numbering, V domains shown)
VH: B1 VH with H35M, D64E
VL: B1 VL
B26: CE115HA000 H35N (antibody, name in Kabat numbering, V domains shown)
VH: B1 VH with H35N, D64E
VL: B1 VL
B27: CE115HA000 H35Q (antibody, name in Kabat numbering, V domains shown)
VH: B1 VH with H35Q, D64E
VL: B1 VL
B28: CE115HA000 H35R (antibody, name in Kabat numbering, V domains shown)
VH: B1 VH with H35R, D64E
VL: B1 VL
B29: CE115HA000 H35S (antibody, name in Kabat numbering, V domains shown)
VH: B1 VH with H35S, D64E
VL: B1 VL
B30: CE115HA000 H35T (antibody, name in Kabat numbering, V domains shown)
VH: B1 VH with H35T, D64E
VL: B1 VL
B31: CE115HA000 H35V (antibody, name in Kabat numbering, V domains shown)
VH: B1 VH with H35V, D64E
VL: B1 VL
B32: CE115HA000 H35W (antibody, name in Kabat numbering, V domains shown)
VH: B1 VH with H35W, D64E
VL: B1 VL
B33: CE115HA000 H35Y (antibody, name in Kabat numbering, V domains shown)
VH: B1 VH with H35Y, D64E
VL: B1 VL
B34: CE115HA000 H96K (antibody, name in Kabat numbering, V domains shown)
VH: B1 VH with D64E, H102K
VL: B1 VL
B35: CE115HA000 H96P (antibody, name in Kabat numbering, V domains shown)
VH: B1 VH with D64E, H102P
VL: B1 VL
B36: CE115HA000 H96Q (antibody, name in Kabat numbering, V domains shown)
VH: B1 VH with D64E, H102Q
VL: B1 VL
B37: CE115HA000 H96Y (antibody, name in Kabat numbering, V domains shown)
VH: B1 VH with D64E, H102Y
VL: B1 VL
B38: CE115HA000 I51D (antibody, name in Kabat numbering, V domains shown)
VH: B1 VH with I51D, D64E
VL: B1 VL
B39: CE115HA000 I51E (antibody, name in Kabat numbering, V domains shown)
VH: B1 VH with I51E, D64E
VL: B1 VL
B40: CE115HA000 K43E (antibody, name in Kabat numbering, V domains shown)
VH: B1 VH with K43E, D64E
VL: B1 VL
B41: CE115HA000 K43Q (antibody, name in Kabat numbering, V domains shown)
VH: B1 VH with K43Q, D64E
VL: B1 VL
B42: CE115HA000 K52D (antibody, name in Kabat numbering, V domains shown)
VH: B1 VH with K52D, D64E
VL: B1 VL
B43: CE115HA000 K52E (antibody, name in Kabat numbering, V domains shown)
VH: B1 VH with K52E, D64E
VL: B1 VL
B44: CE115HA000 K52F (antibody, name in Kabat numbering, V domains shown)
VH: B1 VH with K52F, D64E
VL: B1 VL
B45: CE115HA000 K52H (antibody, name in Kabat numbering, V domains shown)
VH: B1 VH with K52H, D64E
VL: B1 VL

Molecular target: T1, CD3ε homodimer protein (human, UniProt P07766 23-126, limits assumed, sulfo-tag or biotin label in some ECL assays)
T1 construct: also called human CD3ε homodimer protein; CD3 (CD3ε)
T1 sequence (P07766 23-126 limits assumed): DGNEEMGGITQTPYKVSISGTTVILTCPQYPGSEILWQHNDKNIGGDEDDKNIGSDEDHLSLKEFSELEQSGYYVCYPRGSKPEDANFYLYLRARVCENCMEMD
Test: SPR, CD3ε homodimer on chip;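 further: biacore SPR with antibody variants flowed as analyte over amine-coupled CD3ε homodimer on a CM chip, bound amount of each single-residue H chain variant over that of parent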

| Binder | ratio of amounts bound vs CE115HA000 |
| --- | --- |
| B1 | 0.91 |
| B2 | 1.07 |
| B3 | 1.07 |
| B4 | 0.76 |
| B5 | 0.78 |
| B6 | 1.1 |
| B7 | 0.26 |
| B8 | 1.58 |
| B9 | 2.83 |
| B10 | 1.03 |
| B11 | 1.23 |
| B12 | 1 |
| B13 | 2.22 |
| B14 | 0.36 |
| B15 | 0.3 |
| B16 | 0.37 |
| B17 | 0.52 |
| B18 | 0.23 |
| B19 | 0.2 |
| B20 | 0.21 |
| B21 | 0.22 |
| B22 | 0.12 |
| B23 | 0.15 |

| Binder | ratio of amounts bound vs CE115HA000 |
| --- | --- |
| B24 | 0.11 |
| B25 | 0.29 |
| B26 | 0.35 |
| B27 | 0.13 |
| B28 | 0.14 |
| B29 | 0.23 |
| B30 | 0.26 |
| B31 | 0.22 |
| B32 | 0.22 |
| B33 | 0.16 |
| B34 | 0.35 |
| B35 | 0.12 |
| B36 | 0.42 |
| B37 | 0.17 |
| B38 | 0.29 |
| B39 | 0.55 |
| B40 | 0.9 |
| B41 | 0.99 |
| B42 | 0.25 |
| B43 | 0.26 |
| B44 | 0.17 |
| B45 | 0.22 |

Source: patent US20220040297A1 (Chugai, published 2022)
